Our source for the Kd values is PMC5026484.

The target of one assay is Slac2-a/melanophilin (UniProt Q91V27). The note with it: cited from earlier work.
The target of a further assay is Slp2-a (UniProt Q99N50). The note with it: cited from earlier work.
For assay [1], the target named is bMERB domain (Rab binding domain) of Mical-cL, residues 534-683 (human) (UniProt O94851). Description: ITC; iTC200, 25°C; 400 µM Rab titrated into 20–40 µM bMERB domain in the cell; 20 mM Hepes pH 7.5, 50 mM NaCl, 2 mM MgCl2, 1 mM TCEP. Background: Isothermal titration calorimetry measures the heat released or taken up as one component is titrated into another.
Chain of bMERB domain (Rab binding domain) of Mical-cL, residues 534-683 (human) (O94851 1796-1945): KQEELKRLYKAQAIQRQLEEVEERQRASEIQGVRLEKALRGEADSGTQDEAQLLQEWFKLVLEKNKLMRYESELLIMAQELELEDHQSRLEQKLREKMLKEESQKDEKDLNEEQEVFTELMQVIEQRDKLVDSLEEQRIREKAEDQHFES

Chain of Rab27 (Q9ERI2 2-221): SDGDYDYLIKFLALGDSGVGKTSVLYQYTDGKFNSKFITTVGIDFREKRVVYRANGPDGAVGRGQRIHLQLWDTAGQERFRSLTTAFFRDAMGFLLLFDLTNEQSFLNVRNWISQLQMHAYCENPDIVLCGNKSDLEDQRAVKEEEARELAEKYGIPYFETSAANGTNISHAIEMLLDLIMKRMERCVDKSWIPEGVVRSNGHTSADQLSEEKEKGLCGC
Chain of Slp2-a (Q99N50 whole entry, the tested form may be a part): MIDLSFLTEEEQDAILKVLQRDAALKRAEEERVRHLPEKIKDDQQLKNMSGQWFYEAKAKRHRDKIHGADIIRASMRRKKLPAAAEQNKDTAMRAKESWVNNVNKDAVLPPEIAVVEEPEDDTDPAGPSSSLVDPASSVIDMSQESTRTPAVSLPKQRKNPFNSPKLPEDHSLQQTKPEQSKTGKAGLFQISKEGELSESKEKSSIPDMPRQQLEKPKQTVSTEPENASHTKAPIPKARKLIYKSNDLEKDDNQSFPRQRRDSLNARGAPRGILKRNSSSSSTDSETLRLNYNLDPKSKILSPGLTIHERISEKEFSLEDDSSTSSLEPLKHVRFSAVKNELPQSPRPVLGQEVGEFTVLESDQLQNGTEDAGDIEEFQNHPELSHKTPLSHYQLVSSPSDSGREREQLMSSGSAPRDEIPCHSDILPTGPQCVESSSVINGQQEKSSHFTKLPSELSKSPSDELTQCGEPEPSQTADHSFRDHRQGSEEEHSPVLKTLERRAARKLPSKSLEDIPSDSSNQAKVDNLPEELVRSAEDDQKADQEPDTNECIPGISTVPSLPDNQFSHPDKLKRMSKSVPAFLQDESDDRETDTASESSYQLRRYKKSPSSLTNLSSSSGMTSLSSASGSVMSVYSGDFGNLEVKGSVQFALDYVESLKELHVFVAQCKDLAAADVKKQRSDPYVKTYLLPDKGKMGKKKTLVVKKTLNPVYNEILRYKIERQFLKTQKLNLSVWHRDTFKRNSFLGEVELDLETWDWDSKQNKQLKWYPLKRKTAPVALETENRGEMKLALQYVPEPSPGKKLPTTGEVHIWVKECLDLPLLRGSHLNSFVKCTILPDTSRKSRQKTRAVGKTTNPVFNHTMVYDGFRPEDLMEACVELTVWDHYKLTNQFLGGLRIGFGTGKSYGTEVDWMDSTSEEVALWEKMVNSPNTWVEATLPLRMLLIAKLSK
Chain of Slac2-a/melanophilin (Q91V27 whole entry): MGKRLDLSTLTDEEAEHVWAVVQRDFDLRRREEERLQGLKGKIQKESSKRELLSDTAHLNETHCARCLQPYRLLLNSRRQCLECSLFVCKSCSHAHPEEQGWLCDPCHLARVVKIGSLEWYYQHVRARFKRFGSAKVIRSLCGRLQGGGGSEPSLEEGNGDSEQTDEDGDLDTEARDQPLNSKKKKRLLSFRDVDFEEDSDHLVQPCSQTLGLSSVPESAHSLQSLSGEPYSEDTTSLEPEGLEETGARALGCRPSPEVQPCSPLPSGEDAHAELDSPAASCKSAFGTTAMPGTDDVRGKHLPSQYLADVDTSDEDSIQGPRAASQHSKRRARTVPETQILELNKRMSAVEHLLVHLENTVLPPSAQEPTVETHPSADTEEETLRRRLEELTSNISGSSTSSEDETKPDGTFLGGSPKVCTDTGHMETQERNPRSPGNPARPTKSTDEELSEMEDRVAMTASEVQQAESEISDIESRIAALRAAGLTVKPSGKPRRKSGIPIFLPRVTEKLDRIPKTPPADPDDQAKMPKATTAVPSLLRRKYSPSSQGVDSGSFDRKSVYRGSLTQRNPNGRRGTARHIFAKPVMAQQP

As a reminder, the Kd is a measure of binding affinity in units of concentration. Consider Rab27 (from UniProt Q9ERI2), for which the values for the Kd in the assay with Slac2-a/melanophilin and in the assay with Slp2-a were 112 nM and 13.4 nM, respectively.
As for “Rab1R8N, chimera of Rab1b with the 4 N-terminal residues of Rab8 (from UniProt Q9H0U4 5-201) (natural protein)”, in assay [1], the equilibrium dissociation constant (Kd) was 1100 nM.
